Experimental data taken from the Immune Epitope Database (IEDB).

Columns and labels:
HLA-B*39:01 = experiment: IEDB peptide-MHC binding, purified MHC/direct/fluorescence; filed as Kd, often an IC50 or EC50 that approximates it; ≥ and ≤ were set here for values at or beyond the usual limits of such assays
HLA-A*69:01 = experiment: as above
HLA-B*27:05 = experiment: as above
HLA-B*58:01 [1] = experiment: as above
HLA-B*07:02 = experiment: as above
HLA-B*44:02 = experiment: as above
HLA-A*31:01 = experiment: as above
HLA-A*03:01 = experiment: as above
HLA-A*26:01 [2] = experiment: as above; details: source organism: Brucella abortus
HLA-A*02:01 [3] = experiment: as above
HLA-B*15:01 = experiment: as above
HLA-B*08:01 = experiment: as above
HLA-A*11:01 [4] = experiment: as above
HLA-B*40:01 = experiment: as above
HLA-A*01:01 [5] = experiment: as above
HLA-A*29:02 = experiment: as above
HLA-A*68:02 = experiment: as above; details: source organism: Orthohantavirus andesense
HLA-B*57:01 [6] = experiment: as above
HLA-A*02:12 = experiment: as above; details: source organism: Orthohantavirus andesense
HLA-B*46:01 = experiment: as above
HLA-B*18:01 = experiment: as above
HLA-B*48:01 = experiment: as above
HLA-B*51:01 [7] = experiment: IEDB peptide-MHC binding, purified MHC/competitive/fluorescence; filed as Kd, often an IC50 or EC50 that approximates it; ≥ and ≤ were set here for values at or beyond the usual limits of such assays; details: source organism: Orthohantavirus andesense
HLA-A*26:01 [8] = experiment: as above; details: source organism: Orthohantavirus andesense
HLA-B*15:17 = experiment: as above; details: source organism: Orthohantavirus andesense
HLA-B*27:03 = experiment: as above; details: source organism: Orthohantavirus andesense
HLA-B*15:42 = experiment: as above; details: source organism: Orthohantavirus puumalaense
HLA-B*83:01 = experiment: as above; details: source organism: Orthohantavirus puumalaense
HLA-B*45:06 = experiment: as above; details: source organism: Orthohantavirus puumalaense
HLA-A*02:16 = experiment: as above; details: source organism: Entamoeba histolytica HM-1:IMSS
HLA-A*02:01 [9] = experiment: as above; details: source organism: Entamoeba histolytica HM-1:IMSS
HLA-B*57:01 [10] = experiment: IEDB peptide-MHC binding, purified MHC/competitive/radioactivity; filed as Kd, often an IC50 or EC50 that approximates it; ≥ and ≤ were set here for values at or beyond the usual limits of such assays
HLA-A*01:01 [11] = experiment: as above; details: source organism: Dengue virus 3 Sri Lanka/1266/2000
HLA-B*58:01 [12] = experiment: as above
HLA-B*51:01 [13] = experiment: IEDB peptide-MHC binding, purified MHC/direct/fluorescence; filed as Kd, often an IC50 or EC50 that approximates it; ≥ and ≤ were set here for values at or beyond the usual limits of such assays
HLA-B*53:01 = experiment: IEDB peptide-MHC binding, purified MHC/competitive/radioactivity; filed as Kd, often an IC50 or EC50 that approximates it; ≥ and ≤ were set here for values at or beyond the usual limits of such assays
HLA-A*32:01 = experiment: as above; details: source organism: Dengue virus 1 Brazil/97-11/1997
HLA-A*11:01 [14] = experiment: as above; details: source organism: Dengue virus 3 Martinique/1243/1999
[15] = source organism: Brucella abortus
[16] = source organism: Brucella melitensis
[17] = source organism: Mycobacterium tuberculosis str. Haarlem
[18] = source organism: Mycobacterium tuberculosis
[19] = source organism: Orthohantavirus andesense
[20] = source organism: Dengue virus 2 Jamaica/1409/1983
[21] = source organism: Orthohantavirus hantanense
[22] = source organism: Dengue virus 1 Brazil/97-11/1997
[23] = source organism: Dengue virus 4 Philippines/H241/1956
[24] = source organism: Mammarenavirus juninense
[25] = source organism: Dengue virus 1 Singapore/S275/1990
[26] = source organism: Dengue virus 3 Martinique/1243/1999
[27] = source organism: Yersinia pestis
[28] = source organism: Mammarenavirus machupoense

## GRDHVRVTL
HLA-B*39:01; source organism: Brucella suis 1330
  Kd: 0.053 µM
HLA-A*69:01; [15]
  Kd: ≥ 20 µM
HLA-B*27:05; [16]
  Kd: 0.315 µM
HLA-B*58:01 [1]; [15]
  Kd: ≥ 20 µM
HLA-B*07:02; [15]
  Kd: ≥ 20 µM
HLA-B*44:02; [15]
  Kd: ≥ 20 µM
HLA-A*31:01; [15]
  Kd: ≥ 20 µM
HLA-A*03:01; [15]
  Kd: ≥ 20 µM
HLA-A*26:01 [2]
  Kd: ≥ 20 µM
HLA-A*02:01 [3]; [15]
  Kd: ≥ 20 µM
HLA-B*15:01; [15]
  Kd: ≥ 20 µM
HLA-B*08:01; [16]
  Kd: 2.56 µM
HLA-A*11:01 [4]; [15]
  Kd: ≥ 20 µM
HLA-B*40:01; [16]
  Kd: ≥ 5 µM
HLA-A*01:01 [5]; [15]
  Kd: ≥ 20 µM

## QTYMYTGQY
HLA-A*29:02; [17]
  Kd: 0.017 µM
HLA-A*01:01 [5]; [18]
  Kd: 0.512 µM

## AYDHGNVIL
HLA-B*39:01; [19]
  Kd: 0.0657 µM
HLA-A*69:01; [19]
  Kd: ≥ 20 µM
HLA-B*27:05; [19]
  Kd: ≥ 20 µM
HLA-A*68:02
  Kd: ≥ 20 µM
HLA-B*58:01 [1]; [19]
  Kd: ≥ 20 µM
HLA-B*07:02; [19]
  Kd: ≥ 20 µM
HLA-B*44:02; [19]
  Kd: ≥ 20 µM
HLA-A*31:01; [19]
  Kd: ≥ 20 µM
HLA-B*57:01 [6]; [19]
  Kd: ≥ 20 µM
HLA-A*02:12
  Kd: ≥ 20 µM
HLA-A*03:01; [19]
  Kd: ≥ 20 µM
HLA-B*46:01; [19]
  Kd: ≥ 20 µM
HLA-A*02:01 [3]; [19]
  Kd: ≥ 20 µM
HLA-B*18:01; [19]
  Kd: ≥ 20 µM
HLA-B*15:01; [19]
  Kd: ≥ 20 µM
HLA-A*11:01 [4]; [19]
  Kd: ≥ 20 µM
HLA-A*29:02; [19]
  Kd: ≥ 20 µM
HLA-B*48:01; [19]
  Kd: ≥ 20 µM
HLA-B*40:01; [19]
  Kd: ≥ 20 µM
HLA-A*01:01 [5]; [19]
  Kd: ≥ 20 µM
HLA-B*51:01 [7]
  Kd: ≥ 20 µM
HLA-A*26:01 [8]
  Kd: ≥ 20 µM
HLA-B*15:17
  Kd: ≥ 20 µM
HLA-B*27:03
  Kd: ≥ 20 µM

## AELGAFFSI
HLA-B*18:01; source organism: Amur virus
  Kd: 0.0408 µM
HLA-B*40:01; source organism: Amur virus
  Kd: ≤ 0.001 µM
HLA-B*15:42
  Kd: ≥ 5 µM
HLA-B*83:01
  Kd: ≥ 5 µM
HLA-B*45:06
  Kd: ≥ 5 µM

## SLKERIDML
HLA-A*02:16
  Kd: 0.0028 µM
HLA-A*02:01 [9]
  Kd: 0.0013 µM

## SAHSADGHY
HLA-A*29:02; [17]
  Kd: 0.02 µM
HLA-A*01:01 [5]; [18]
  Kd: ≥ 20 µM

## VSSVNMVSRL
HLA-B*57:01 [10]; source organism: Dengue virus 3 Sri Lanka/1266/2000
  Kd: 1.03 µM
HLA-A*01:01 [11]
  Kd: 10.7 µM

## AASIILEFFL
HLA-B*58:01 [12]; [20]
  Kd: 0.366 µM
HLA-B*57:01 [10]; [20]
  Kd: 2.27 µM

## AVRTDGSNI
HLA-B*07:02; [21]
  Kd: 0.261 µM
HLA-B*51:01 [13]; [21]
  Kd: ≥ 20 µM

## TTLSLDYAW
HLA-B*58:01 [12]; [22]
  Kd: 0.00166 µM
HLA-B*57:01 [10]; [22]
  Kd: 0.000617 µM
HLA-B*53:01; [22]
  Kd: 0.0709 µM
HLA-A*32:01
  Kd: 0.114 µM

## IASLVMLLVH
HLA-B*58:01 [12]; [23]
  Kd: 1.73 µM
HLA-B*57:01 [10]; [23]
  Kd: 0.435 µM

## QVKRREGMF
HLA-A*69:01; [24]
  Kd: ≥ 20 µM
HLA-B*27:05; [24]
  Kd: ≥ 20 µM
HLA-B*58:01 [1]; [24]
  Kd: ≥ 20 µM
HLA-B*07:02; [24]
  Kd: ≥ 20 µM
HLA-B*44:02; [24]
  Kd: ≥ 20 µM
HLA-A*31:01; [24]
  Kd: ≥ 20 µM
HLA-B*57:01 [6]; [24]
  Kd: ≥ 20 µM
HLA-A*03:01; [24]
  Kd: ≥ 20 µM
HLA-B*46:01; [24]
  Kd: ≥ 20 µM
HLA-A*02:01 [3]; [24]
  Kd: ≥ 20 µM
HLA-B*18:01; [24]
  Kd: ≥ 20 µM
HLA-B*08:01; [24]
  Kd: 1.55 µM
HLA-A*11:01 [4]; [24]
  Kd: ≥ 20 µM
HLA-A*29:02; [24]
  Kd: ≥ 20 µM
HLA-B*48:01; [24]
  Kd: ≥ 20 µM
HLA-B*40:01; [24]
  Kd: ≥ 20 µM
HLA-A*01:01 [5]; [24]
  Kd: ≥ 20 µM

## GASHNILVEV
HLA-B*58:01 [12]; [25]
  Kd: 9.64 µM
HLA-B*57:01 [10]; [25]
  Kd: 0.785 µM

## GGWRLSAQW
HLA-B*57:01 [10]; [26]
  Kd: 0.179 µM

## RVWIEENPW
HLA-B*57:01 [10]; [22]
  Kd: 0.0027 µM
HLA-A*32:01
  Kd: 0.058 µM

## WANDFNHHY
HLA-B*07:02; [27]
  Kd: ≥ 20 µM
HLA-B*51:01 [13]; [27]
  Kd: ≥ 20 µM
HLA-B*15:01; source organism: Yersinia pestis CA88-4125
  Kd: 0.029 µM

## ASSMINGVVK
HLA-B*58:01 [12]; [26]
  Kd: 1.3 µM
HLA-B*57:01 [10]; [26]
  Kd: 15.7 µM
HLA-A*11:01 [14]
  Kd: 0.0392 µM

## IGIGVLLTW
HLA-B*58:01 [12]; [26]
  Kd: 0.0116 µM
HLA-B*57:01 [10]; [26]
  Kd: 0.192 µM
HLA-B*53:01; [26]
  Kd: 1.14 µM

## GTSETFSMGL
HLA-B*57:01 [10]; [23]
  Kd: 13.5 µM

## FHEFLSSKL
HLA-B*39:01; [28]
  Kd: 0.0731 µM
HLA-B*27:05; [28]
  Kd: ≥ 20 µM
HLA-B*58:01 [1]; [28]
  Kd: ≥ 20 µM
HLA-B*07:02; [28]
  Kd: ≥ 20 µM
HLA-B*44:02; [28]
  Kd: ≥ 20 µM
HLA-A*31:01; [28]
  Kd: ≥ 20 µM
HLA-B*57:01 [6]; [28]
  Kd: ≥ 20 µM
HLA-A*03:01; [28]
  Kd: ≥ 20 µM
HLA-B*46:01; [28]
  Kd: ≥ 20 µM
HLA-A*02:01 [3]; [28]
  Kd: ≥ 20 µM
HLA-B*15:01; [28]
  Kd: ≥ 20 µM
HLA-A*11:01 [4]; [28]
  Kd: ≥ 20 µM
HLA-B*48:01; [28]
  Kd: ≥ 20 µM
HLA-A*01:01 [5]; [28]
  Kd: ≥ 20 µM

## QASTTEAILP
HLA-B*58:01 [12]; [26]
  Kd: 1.52 µM
HLA-B*57:01 [10]; [26]
  Kd: 1.96 µM
